Measured values from the RNAGym collection of RNA variant scans (doi:10.7554/elife.80360).

B1: Hairpin Ribozyme (parent)
chain: GUCCUCUUUCACGUGCGCGUGAAAGAGAGAAGUGAACCAGAGAAACACACGUUGUGGUAUAUUACCUGGUA

Variants of: B1
Assay: self-cleavage, relative activity (ratio to wild type); higher = more cleavage; co-transcriptional

Row | Variant | self-cleavage
1 | G21C U60C | 0.851
2 | G21C U60A | 0.744
3 | G21C G56C | 0.209
4 | G21C G56U | 0.268
5 | G21A U63A | 0.14
6 | G21C C65A | 0.777
7 | G21C G68C | 0.155
8 | G21C G68A | 0.321
9 | G21A A43C | 0.153
10 | G21A A43U | 0.123
11 | G21A C66U | 0.447
12 | G21C A43G | 0.104
13 | G21C A43C | 0.146
14 | G21A U58G | 0.554
15 | G21A C50U | 0.371
16 | G21A G29C | 0.168
17 | G21A C46A | 0.149
18 | G21A G69A | 0.382
19 | G21C A45G | 0.192
20 | G21C A45U | 0.154
21 | G21C A45C | 0.276
22 | G21U A71G | 0.805
23 | G21C A23C | 0.422
24 | G21A A49G | 0.469

Row | Variant | self-cleavage
25 | G21A A49C | 0.233
26 | G21U A61C | 0.237
27 | G21U G68U | 0.32
28 | G21U G68A | 0.237
29 | G21C A44U | 0.0331
30 | G21C G27C | 0.134
31 | G21U A44G | 0.0823
32 | G21U A44C | 0.117
33 | G21U A22U | 0.809
34 | G21A U62G | 0.163
35 | G21U G29C | 0.224
36 | G21U U63G | 0.248
37 | G21U U63C | 0.122
38 | G21A G34A | 0.968
39 | G21C U53C | 0.953
40 | G21A G56U | 0.185
41 | G21A G56A | 0.19
42 | G21U G42A | 0.158
43 | G21U G42U | 0.285
44 | G21C A28U | 0.31
45 | G21C C38A | 0.18
46 | G21A C37G | 0.344
47 | G21A C37A | 0.269
48 | G21A C37U | 0.538

Row | Variant | self-cleavage
49 | G21U C37A | 0.267
50 | G21C G54A | 0.392
51 | G21C G54U | 0.511
52 | G21U U62A | 0.151
53 | G21A G42A | 0.218
54 | G21A G42C | 0.281
55 | G21A G42U | 0.249
56 | U20G U67A | 0.241
57 | U20G U67C | 0.186
58 | G21A C65U | 0.147
59 | G21A C65A | 0.861
60 | G21A C65G | 0.158
61 | G21A A26U | 0.525
62 | G21A A26G | 0.658
63 | G21A A59C | 0.13
64 | G21A A59U | 0.142
65 | G21C A31G | 0.275
66 | G21U U60C | 1.08
67 | G21C C46U | 0.116
68 | G21C C46A | 0.0884
69 | G21A A24U | 0.513
70 | G21U A49G | 0.408
71 | G21A A30C | 0.128
72 | G21U G51C | 0.859

Row | Variant | self-cleavage
73 | G21C G40U | 0.17
74 | G21C G40C | 0.0941
75 | U20G U62C | 0.188
76 | G21A A61G | 0.116
77 | G21A A61U | 0.18
78 | G21A A64G | 0.418
79 | G21A A64U | 0.178
80 | G21A A39U | 0.346
81 | G21A A39C | 0.467
82 | G21C G57A | 0.16
83 | G21A C38A | 0.208
84 | G21A C38G | 0.239
85 | G21A A47U | 0.162
86 | G21U A64U | 0.113
87 | G21U A64G | 0.573
88 | G21C C48U | 0.098
89 | G21C C48G | 0.184
90 | G21C G51A | 0.914
91 | G21U A59G | 0.0937
92 | G21U A59U | 0.147
93 | G21U A59C | 0.148
94 | G21U A24C | 0.481
95 | G21A A71C | 1.23
96 | G21A A71G | 0.854

Row | Variant | self-cleavage
97 | G21U G34A | 1.01
98 | G21C A39U | 0.46
99 | G21C A39G | 0.225
100 | G21U U58C | 0.84
101 | G21U U58G | 0.585
102 | G21A A31U | 0.0982
103 | G21U A23U | 0.754
104 | G21U A23G | 0.772
105 | G21C A61C | 0.151
106 | G21U A30U | 0.142
107 | G21U A30G | 0.149
108 | G21U U67A | 0.088
109 | G21U A28U | 0.688
110 | G21C A64U | 0.0998
111 | G21C A64C | 0.154
112 | G21C C37A | 0.192
113 | G21C C37U | 0.583
114 | G21C A35U | 0.751
115 | G21C U63C | 0.196
116 | G21C G32C | 0.175
117 | G21A G68A | 0.151
118 | G21U C38A | 0.184
119 | G21A A36C | 0.605
120 | G21A A36U | 0.503

Row | Variant | self-cleavage
121 | G21U U55C | 0.288
122 | G21U U55A | 0.227
123 | G21A U52G | 0.784
124 | U20G U58C | 0.826
125 | G21A G25U | 0.426
126 | G21C U67A | 0.212
127 | G21C U67C | 0.18
128 | G21C U67G | 0.246
129 | G21C U58A | 0.577
130 | G21C U58C | 0.77
131 | G21U G27U | 0.253
132 | G21A A35G | 0.729
133 | G21A A45U | 0.286
134 | G21C A71G | 0.818
135 | G21U A47G | 0.208
136 | G21A A28C | 0.472
137 | G21A A28G | 0.979
138 | G21U A43U | 0.129
139 | G21U A43G | 0.282
140 | G21C U62G | 0.216
141 | G21A U60C | 0.956
142 | G21U A39G | 0.293
143 | G21U A39C | 0.448
144 | G21U U53A | 0.836

Row | Variant | self-cleavage
145 | G21C U33A | 0.133
146 | G21A U55A | 0.177
147 | G21C A41U | 1.16
148 | G21C A41C | 0.957
149 | G21U C50U | 0.376
150 | G21U C50G | 0.328
151 | G21C G42U | 0.379
152 | G21C C66A | 0.27
153 | G21C C66U | 0.576
154 | G21A G54U | 0.372
155 | G21C A26C | 0.164
156 | G21A U53A | 0.824
157 | G21A U53C | 0.739
158 | G21A G32U | 0.0748
159 | G21A G32A | 0.193
160 | G21C A59C | 0.238
161 | G21C G34C | 0.992
162 | G21C G34U | 1.12
163 | G21C A36C | 0.534
164 | G21C A36U | 0.566
165 | G21C G69C | 0.265
166 | G21C A30G | 0.22
167 | G21U G25A | 0.252
